Experimental findings from patent publication US20240002497A1 (Merck Sharp & Dohme, published 2024) are described below.

Test [1] has as its target T1, huNav1.7α + β1-β2-β3 (human Nav1.7α co-expressed with human Navβ1, Navβ2 and Navβ3 on cells) (human).
T1 construct: also called huNav1.7-beta1-beta2-beta3; CHO FlpIn huNav1.7α + β1-β2-β3
As to the kind of experiment: binding FACS, CHO FlpIn cells. Put shortly: (§1)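 Flow cytometry read-out of anti-Flag signal on propidium iodide-negative cells measured ISVD binding. Purified FLAG3-tagged ISVD, diluted in PBS with 10% FBS and NaN₃, was applied to the cells for 30 minutes at 4° C.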

Test [2] addresses T2, rhNav1.7α + β1-β2-β3 (rhesus Nav1.7α co-expressed with Navβ1, Navβ2 and Navβ3 on cells) (rhesus monkey (α subunit); β subunits …).
T2 construct: also called rhNav1.7-beta1-beta2-beta3; CHO FlpIn rhNav1.7α + β1-β2-β3
As to the kind of experiment: binding FACS, CHO FlpIn cells. Summed up:
as §1

The target of test [3] is T3, huNav1.7α+β1 (human, UniProt Q15858 1-1988; Q07699 19-218).
T3 construct: also called huNav1.7-beta1; HEKa/β1
Nature of the test: binding FACS, HEKa/β1 cells. Here is the method:
(§2) Binding of the ISVDs to cell-expressed Nav1.7α was detected via murine anti-Flag (Sigma, catalog #F1804). Briefly, cells were resuspended in FACS buffer (PBS, 10% FBS, NaN₃) and transferred to a 96-well V-bottom plate at 1×10^5 cells/well. Purified FLAG3-tagged ISVD was diluted in FACS buffer and added to the cells for 30 minutes at 4° C. […] Prior to the read-out, the samples were resuspended in 1 μg/mL propidium iodide (Sigma, catalog #P4170) to exclude dead cells. Between each step, the cells were centrifuged for 5 minutes at 200 grams and washed with 100 μL/well FACS buffer.

Test [4] has as its target T4, huNav1.7α + β1 (HEKa/β1) (human, UniProt Q15858 1-1988; Q07699 19-218).
T4 construct: also called HEKa/β1 huNav1.7α
As to the kind of experiment: binding FACS, HEKa/β1 cells. As to the method:
as §2

Test [5] has as its target T5, huNav1.7α + β1-β2-β3 (human, UniProt Q15858 1-1988; A5A6L6 19-218; O60939 30-215; Q2KI11 23-215).
T5 construct: Cell line (CHO FlpIn, HEK FlpIn, transient HEK293T) is named under assay; also called huNav1.7-beta1-beta2-beta3; human Nav1.7α with Navβ1, Navβ2 and Navβ3
As to the kind of experiment: binding FACS, CHO FlpIn cells. Put shortly: as §1

B1: F010301840 (VHH)
VHH: EVQLVESGGGVVQPGGSLRLSCAASGPVFNINRMAWYRQAPGKQRELVAYVTPTGDISYTDSVKGRFTISRDGSKRTWSLQMNSLRPEDTALYYCRALLQPDSYSNTRTYWGQGTLVTVSS
notes: also called F0103387G04(R76_V78insT)(L11V, A12V, K33R, R39Q, S50Y, S56D, T83R, V89L, N93R)
Turning to B1, the values for the Bmax in test [1] and in test [2] were 100% and 50%, respectively. The values for the 50% effective concentration (EC50) in test [1] and in test [2] were 0.047 µM and 0.048 µM, respectively.

B2: F010301055 (VHH)
VHH: EVQLVESGGGLVQPGGSLRLSCAASGMLFNANTQGWYRQAPGKQRELVAFIFWGGYVNYVDSVKGRFTISRDNAKRTMYLQMNSLKPEDSAIYYCSLSRYLGQGTLVTVSS
notes: vs F0103265A11: S53W, T57V
With B2, in test [3], the “Bmax relative to '535” value was 117% and a half-maximal effect (EC50) was put at 0.0044 µM.

B3: F010301138 (VHH)
VHH: EVQLVESGGGLVQPGGSLRLSCAASGMLFYANTQGWYRQAPGKQRELVAFIFSGGYTNYNDSVKGRFTISRDNAKRTMYLQMNSLKPEDSAIYYCALSRYQGQGTLVTVSS
notes: vs F0103265A11: N30Y, V60N, S93A, L103Q
On to B3, for which, in test [3], the “Bmax relative to '535” value stood at 107% and a half-maximal response (EC50) required 0.0097 µM.

B4: F010301139 (VHH)
VHH: EVQLVESGGGLVQPGGSLRLSCAASGMLFNRNTQGWYRQAPGKQRELVAFWFSGGYVNYNDSVKGRFTISRDNAKRTMYLQMNSLKPEDSAIYYCSLSRYQGQGTLVTVSS
notes: vs F0103265A11: A31R, I51W, T57V, V60N, L103Q
B4: in test [3], the “Bmax relative to '535” value amounted to 117% and the EC50 stood at 0.0047 µM.

B5: F010301126 (VHH)
VHH: EVQLVESGGGLVQPGGSLRLSCAASGMLFNRNTQGWYRQAPGKQRELVAFIFSGGYVTYNDSVKGRFTISRDNAKRTMYLQMNSLKPEDSAIYYCSLSRYLGQGTLVTVSS
notes: vs F0103265A11: A31R, T57V, N58T, V60N
For the molecule B5, in test [3], the “Bmax relative to '535” value is 118% and a half-maximal effect (EC50) was put at 0.0056 µM.

B6: F010301059 (VHH)
VHH: EVQLVESGGGLVQPGGSLRLSCAASGMLFNANTQGWYRQAPGKQRELVAFIFSGGYVNYNDSVKGRFTISRDNAKRTMYLQMNSLKPEDSAIYYCALSRYQGQGTLVTVSS
notes: vs F0103265A11: T57V, V60N, S93A, L103Q
Regarding B6, in test [3], the “Bmax relative to '535” value was 99% and a half-maximal effect (EC50) was put at 0.0054 µM.

B7: F010301113 (VHH)
VHH: EVQLVESGGGLVQPGGSLRLSCAASGMLFNRNTQGWYRQAPGKQRELVAFIFSGGYTNYNDSVKGRFTISRDNAKRTMYLQMNSLKPEDSAIYYCSLSVYQGQGTLVTVSS
notes: vs F0103265A11: A31R, V60N, R101V, L103Q
Take B7: in test [3], the “Bmax relative to '535” value is 111% and the EC50 is 0.0057 µM.

B8: F010301111 (VHH)
VHH: EVQLVESGGGLVQPGGSLRLSCAASGMLFNANTQGWYRQAPGKQRELVAFIFSGGYVNYNDSVKGRFTISRDNAKRTMYLQMNSLKPEDSAIYYCALSRYLGQGTLVTVSS
notes: vs F0103265A11: T57V, V60N, S93A
On to B8, for which, in test [3], the “Bmax relative to '535” value stood at 99% and the EC50 worked out at 0.0054 µM.

B9: F010301099 (VHH)
VHH: EVQLVESGGGLVQPGGSLRLSCAASGMLFNANTQGWYRQAPGKQRELVAFIFSGGWVTYVDSVKGRFTISRDNAKRTMYLQMNSLKPEDSAIYYCSLSRYLGQGTLVTVSS
notes: vs F0103265A11: Y56W, T57V, N58T
For B9, in test [3], the “Bmax relative to '535” value is 87% and it took 0.0074 µM to reach a half-maximal effect (EC50).

B10: F010301175 (VHH)
VHH: EVQLVESGGGLVQPGGSLRLSCAASGMLFNRNTQGWYRQAPGKQRELVAFIFSGGYTTYVDSVKGRFTISRDNAKRTMYLQMNSLKPEDSAIYYCSLSRYLGQGTLVTVSS
notes: vs F0103265A11: A31R, N58T
As to B10, in test [3], the “Bmax relative to '535” value came to 111% and the EC50 was determined as 0.0054 µM.

B11: F010301232 (VHH)
VHH: EVQLVESGGGLVQPGGSLRLSCAASGMLFNRNTQGWYRQAPGKQRELVAFIFSGGYTTYVDSVKGRFTISRDNAKRTMYLQMNSLKPEDSAIYYCALSRYQGQGTLVTVSS
notes: vs F0103265A11: A31R, N58T, S93A, L103Q
In the case of B11, in test [3], the “Bmax relative to '535” value was determined as 112% and the midpoint of the response, the EC50, lay at 0.0093 µM.

B12: F010301188 (VHH)
VHH: EVQLVESGGGLVQPGGSLRLSCAASGMLFNRNTQGWYRQAPGKQRELVAFIFSGGYTNYNDSVKGRFTISRDNAKRTMYLQMNSLKPEDSAIYYCSLSRYQGQGTLVTVSS
notes: vs F0103265A11: A31R, V60N, L103Q
For B12, in test [3], the “Bmax relative to '535” value came to 104% and the EC50 was 0.0051 µM.

B13: F010301865 (VHH)
VHH: EVQLVESGGGVVQPGGSLRLSCAASGPVFNINRMAWYRQAPGKQRELVAYVTPTGDISYADSVKGRFTISRDGSKRVYLQMNSLRPEDTALYYCRALLQPDSYSNTRTYWGQGTLVTVSA
notes: also called F0103387G04(L11V, A12V, K33R, R39Q, S50Y, S56D, T60A, W78V, S79Y, T83R, V89L, N93R)
For the molecule B13, in test [1], the Bmax came to 100% and the half-maximal effective concentration (EC50) amounted to 0.02 µM. Besides, in test [2], the Bmax is 100% and the EC50 turned out to be 0.011 µM.

B14: F010301567 (VHH)
VHH: EVQLVESGGGLVQAGGSLRLSCAASVRPYSTSAMGWFRQAPEKEREAVAGILWNGIVTYYADSVKGRFTISRDNAKNEVYLQMNKLKPEDTAVYYCALDRDYGGRSFSAYEYEYWGQGTLVTVSS
notes: F29Y vs F0103362B08 (Kabat)
Regarding B14, the 50% effective concentration (EC50) in test [4] turned out to be 0.024 µM; in test [5], 0.11 µM.

B15: F010301568 (VHH)
VHH: EVQLVESGGGLVQAGGSLRLSCAASVRPFSTSAMTWFRQAPEKEREAVAGILWNGIVTYYADSVKGRFTISRDNAKNEVYLQMNKLKPEDTAVYYCALDRDYGGRSFSAYEYEYWGQGTLVTVSS
notes: G35T vs F0103362B08 (Kabat)
As for B15, the half-maximal effective concentration (EC50) in test [4] was 0.11 µM; in test [5] it was 0.31 µM.

B16: F010301586 (VHH)
VHH: EVQLVESGGGLVQAGGSLRLSCAASVRPFSTSAMGWFRQAPEKEREAVAGILANGIVTYYADSVKGRFTISRDNAKNEVYLQMNKLKPEDTAVYYCALDRDYGGRSFSAYEYEYWGQGTLVTVSS
notes: W52aA vs F0103362B08 (Kabat)
Take B16: the 50% effective concentration (EC50) in test [4] is 0.051 µM; in test [5] it was 0.17 µM.

B17: F010301589 (VHH)
VHH: EVQLVESGGGLVQAGGSLRLSCAASVRPFSTSAMGWFRQAPEKEREAVAGILWNGPVTYYADSVKGRFTISRDNAKNEVYLQMNKLKPEDTAVYYCALDRDYGGRSFSAYEYEYWGQGTLVTVSS
notes: I55P vs F0103362B08 (Kabat)
In the case of B17, the EC50 worked out at 0.041 µM in test [4] and 0.12 µM in test [5].

B18: F010301574 (VHH)
VHH: EVQLVESGGGLVQAGGSLRLSCAASVRPFSTSAMAWFRQAPEKEREAVAGILWNGIVTYYADSVKGRFTISRDNAKNEVYLQMNKLKPEDTAVYYCALDRDYGGRSFSAYEYEYWGQGTLVTVSS
notes: G35A vs F0103362B08 (Kabat)
For B18, the EC50 in test [4] came to 0.029 µM; in test [5], 0.1 µM.

B19: F010301584 (VHH)
VHH: EVQLVESGGGLVQAGGSLRLSCAASVRPFSTSAMGWFRQAPEKEREAVAGILTNGIVTYYADSVKGRFTISRDNAKNEVYLQMNKLKPEDTAVYYCALDRDYGGRSFSAYEYEYWGQGTLVTVSS
notes: W52aT vs F0103362B08 (Kabat)
Regarding B19, the EC50 is 0.042 µM in test [4] and 0.11 µM in test [5].

B20: F010301585 (VHH)
VHH: EVQLVESGGGLVQAGGSLRLSCAASVRPFSTSAMGWFRQAPEKEREAVAGILWNGIPTYYADSVKGRFTISRDNAKNEVYLQMNKLKPEDTAVYYCALDRDYGGRSFSAYEYEYWGQGTLVTVSS
notes: V56P vs F0103362B08 (Kabat)
On to B20, for which the EC50 is 0.053 µM in test [4] and 0.11 µM in test [5].

B21: F010301580 (VHH)
VHH: EVQLVESGGGLVQAGGSLRLSCAASVTPFSTSAMGWFRQAPEKEREAVAGILWNGIVTYYADSVKGRFTISRDNAKNEVYLQMNKLKPEDTAVYYCALDRDYGGRSFSAYEYEYWGQGTLVTVSS
notes: R27T vs F0103362B08 (Kabat)
For B21, the EC50 in test [4] was 0.035 µM; in test [5], 0.18 µM.

B22: F010301591 (VHH)
VHH: EVQLVESGGGLVQAGGSLRLSCAASVRPFSTSAMGWFRQAPEKEREAVAGILWNGIVTYYADSVKGRFTISRDNAKNEVYLQMNKLKPEDTAVYYCALDRDYKGRSFSAYEYEYWGQGTLVTVSS
notes: G99K vs F0103362B08 (Kabat)
Regarding B22, the values for the half-maximal effective concentration (EC50) in test [4] and in test [5] were 0.043 µM and 0.093 µM, respectively.

B23: F010301579 (VHH)
VHH: EVQLVESGGGLVQAGGSLRLSCAASVKPFSTSAMGWFRQAPEKEREAVAGILWNGIVTYYADSVKGRFTISRDNAKNEVYLQMNKLKPEDTAVYYCALDRDYGGRSFSAYEYEYWGQGTLVTVSS
notes: R27K vs F0103362B08 (Kabat)
In the case of B23, the concentration for a half-maximal effect (EC50) stood at 0.036 µM in test [4] and 0.13 µM in test [5].

B24: F010301578 (VHH)
VHH: EVQLVESGGGLVQAGGSLRLSCAASVRPFGTSAMGWFRQAPEKEREAVAGILWNGIVTYYADSVKGRFTISRDNAKNEVYLQMNKLKPEDTAVYYCALDRDYGGRSFSAYEYEYWGQGTLVTVSS
notes: S30G vs F0103362B08 (Kabat)
Consider B24, for which the values for the concentration for a half-maximal effect (EC50) in test [4] and in test [5] were 0.03 µM and 0.12 µM, respectively.
